The target of data set [1] is fluorescently labeled KaiB (Synechococcus elongatus) (UniProt Q79PF5). Kind of data set: fluorescence polarisation. A general note: Polarisation of emitted light reports the rotation of a fluorescent probe.
Data set [2] deals with the molecule itself. The data set can be described thus: cryo-EM structure.

As a reminder, the Kd is a measure of binding affinity in units of concentration. Read a high Kd as weaker binding. By stoichiometry N is commonly meant a count of units in the complex or per binding partner.

B1: KaiC-S431A-T432E (natural protein, Synechococcus elongatus)
chain: MTSAEMTSPNNNSEHQAIAKMRTMIEGFDDISHGGLPIGRSTLVSGTSGTGKTLFSIQFLYNGIIEFDEPGVFVTFEETPQDIIKNARSFGWDLAKLVDEGKLFILDASPDPEGQEVVGGFDLSALIERINYAIQKYRARRVSIDSVTSVFQQYDASSVVRRELFRLVARLKQIGATTVMTTERIEEYGPIARYGVEEFVSDNVVILRNVLEGERRRRTLEILKLRGTSHMKGEYPFTITDHGINIFPLGAMRLTQRSSNVRVSSGVVRLDEMCGGGFFKDSIILATGATGTGKTLLVSRFVENACANKERAILFAYEESRAQLLRNAYSWGMDFEEMERQNLLKIVCAYPESAGLEDHLQIIKSEINDFKPARIAIDSLSALARGVSNNAFRQFVIGVTGYAKQEEITGLFTNTSDQFMGAHSITDSHIAEITDTIILLQYVEIRGEMSRAINVFKMRGSWHDKAIREFMISDKGPDIKDSFRNFERIISGSPTRITVDEKSELSRIVRGVQEKGPES
With B1, the Kd in data set [1] is > 43 µM. Besides, the “stoichiometry N” value in data set [2] was found to be 6.

(Values after publication PMC9495280 (Nature structural & molecular biology, 2022).)
